Results from US20130225493A1.

B1: FGF-18^Δ51, O76093 52-207 (ligand)
chain: MLRLYQLYSRTSGKHIQVLGRRISARGEDGDKYAQLLVETDTFGSQVRIKGKETEFYLCMNRKGKLVGKPDGTSKECVFIEKVLENNYTALMSAKYSGWYVGFTKKGRPRKGPKTRENQQDVHFMKRYPKGQPELQKPFKYTTVTKRSRRIRPTHPA
modifications: here or on the partner: biotinylated in the immobilized receptor assays (sites not given)
B2: FGF-18^Δ45, O76093 46-207 (ligand)
chain: MDVSRKQLRLYQLYSRTSGKHIQVLGRRISARGEDGDKYAQLLVETDTFGSQVRIKGKETEFYLCMNRKGKLVGKPDGTSKECVFIEKVLENNYTALMSAKYSGWYVGFTKKGRPRKGPKTRENQQDVHFMKRYPKGQPELQKPFKYTTVTKRSRRIRPTHPA
modifications: here or on the partner: biotinylated in the immobilized receptor assays (sites not given)
B3: FGF-18 (recombinant wild type, mature form without the signal peptide), O76093 29-207 (ligand)
chain: MENVDFRIHVENQTRARDDVSRKQLRLYQLYSRTSGKHIQVLGRRISARGEDGDKYAQLLVETDTFGSQVRIKGKETEFYLCMNRKGKLVGKPDGTSKECVFIEKVLENNYTALMSAKYSGWYVGFTKKGRPRKGPKTRENQQDVHFMKRYPKGQPELQKPFKYTTVTKRSRRIRPTHPA
modifications: here or on the partner: biotinylated in the immobilized receptor assays (sites not given)
B4: FGF-18^Δ37, O76093 38-207 (ligand)
chain: MENQTRARDDVSRKQLRLYQLYSRTSGKHIQVLGRRISARGEDGDKYAQLLVETDTFGSQVRIKGKETEFYLCMNRKGKLVGKPDGTSKECVFIEKVLENNYTALMSAKYSGWYVGFTKKGRPRKGPKTRENQQDVHFMKRYPKGQPELQKPFKYTTVTKRSRRIRPTHPA
modifications: here or on the partner: biotinylated in the immobilized receptor assays (sites not given)

Target: FGFR3-IIIc stably expressed on FDCP cells, P22607
Sequence (P22607 23-806): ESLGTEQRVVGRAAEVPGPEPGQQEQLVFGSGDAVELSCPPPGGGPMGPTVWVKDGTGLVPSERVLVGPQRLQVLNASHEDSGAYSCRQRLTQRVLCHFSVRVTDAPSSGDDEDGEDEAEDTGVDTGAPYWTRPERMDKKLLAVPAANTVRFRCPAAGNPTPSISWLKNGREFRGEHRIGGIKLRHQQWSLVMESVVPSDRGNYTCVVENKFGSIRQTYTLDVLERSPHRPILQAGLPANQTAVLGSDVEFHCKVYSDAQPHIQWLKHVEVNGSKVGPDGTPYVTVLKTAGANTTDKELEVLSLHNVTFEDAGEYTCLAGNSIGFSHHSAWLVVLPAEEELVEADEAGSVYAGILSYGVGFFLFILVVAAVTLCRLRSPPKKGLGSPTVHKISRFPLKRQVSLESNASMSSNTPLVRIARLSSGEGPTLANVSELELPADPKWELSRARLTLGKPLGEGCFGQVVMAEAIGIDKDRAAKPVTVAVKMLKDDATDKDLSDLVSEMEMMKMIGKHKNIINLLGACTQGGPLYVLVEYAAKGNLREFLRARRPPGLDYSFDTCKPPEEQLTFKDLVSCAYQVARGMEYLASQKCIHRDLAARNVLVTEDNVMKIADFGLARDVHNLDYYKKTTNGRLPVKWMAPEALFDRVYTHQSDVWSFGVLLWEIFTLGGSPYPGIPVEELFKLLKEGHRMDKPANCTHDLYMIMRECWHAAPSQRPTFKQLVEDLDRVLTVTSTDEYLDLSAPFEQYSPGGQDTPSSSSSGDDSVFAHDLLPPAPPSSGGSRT
Assay: cell-based or functional assay

B1 and B2 are within 1.5-fold of each other in EC50 scores of FGF ligands in cell proliferation of FDCPR3: 3.97 ng/mL for the first, 5.44 ng/mL for the second.

First: B3
Second: B4
The EC50 scores of FGF ligands in cell proliferation of FDCPR3 of the first is 4.9-fold higher: 15.4 ng/mL for the first, 3.14 ng/mL for the second.
